Measured values as given in the supplement of paper PMC9170038.

Tested on: MS2 coat protein
Assay: apparent KD of MS2 coat protein; designed switch direction (-1 OFF switch, 1 ON switch): -1; higher = weaker reporter binding
Summary of the method: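 Transcription of designed RNA switches on Illumina chips was done by stalled E. coli RNA polymerase. SNAP-549-labelled MS2 coat protein was then titrated in doubling steps from 0.7 or 1.5 nM to 3 µM, with steps of 0.8–1.5 h at the lowest and 10–20 min at the highest concentration. The per-design median over clusters of curve-fitted normalised fluorescence is reported as apparent KD.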

[1] = input ligand: microRNA oligo, concentration not stated
[2] = Eterna round: R95, input ligand: FMN 200 uM
[3] = Eterna round: R95, input ligand: microRNA oligo, concentration not stated
[4] = Eterna round: R95, input ligand: none

Sequence	apparent KD of MS2 coat protein (input ligand: FMN 200 uM) [nM]	apparent KD of MS2 coat protein [1] [nM]	apparent KD of MS2 coat protein (input ligand: none) [nM]	apparent KD of MS2 coat protein [2] [nM]	apparent KD of MS2 coat protein [3] [nM]	apparent KD of MS2 coat protein [4] [nM]
AACAGAAAAGAAAUAAAUAACAUGAGGAUCACCCAUGUCAACGGGUAAGAGCUCAACGAGCUGCGAGUCUUACUCAA [Enreaerre] (Eterna round: R96, puzzle: Sensor v2, turn-off variant)	25.7	17.5	24.7			
AACAGGUCAGGAUAUACAUGAGGAUCACCCAUGUAGACUUCUAGUCUACCGAGGCUGUGUAGAAGGGACCUGAA [Exclusion 3 (MOD4 of #98 Marzena11)] (Eterna round: R97, puzzle: Exclusion 3)	175		43.3			
AACAGUCCUUAGGAUAUGUGCGAUUAAUAUCGUGCAGAAGGAUGGACAUGAGGAUCACCCAUGUAAAUACUACC [Omei Ex6 A17] (Eterna round: R97, puzzle: Exclusion 6)	62.6		20.9			
AACCGGCGGACCGAAGCUUUUUGCUUGUUUUAUACUACAACAUGAGGAUCACCCAUGUGGUGGUGGUCCGUUGUAGA [Bitein] (puzzle: Sensor v3, turn-off variant 2)				47.9	16.1	52.9
AACCUAAGGCAAAGCUUUAGGUGUACAUGAGGAUCACCCAUGUAGGAUAUGGUAGGCAAAGCUUACCAGAAGGACAUUAUGAUA [Mat - Exclusion NG 3 - Mod of JL - D53] (Eterna round: R96, puzzle: Exclusion NG 3)	82.1	27.5	55.2			
AACCUGAGGCUUUGCUUUAGGUUUACAUGAGGAUCACCCAUGUAGGAUAUGGUAGGCUUUGCUUACCAGAAGGACAUGAAAAUU [Mat - Exclusion NG 3 - Mod of JL - D28] (Eterna round: R96, puzzle: Exclusion NG 3)	225	40.4	44.2			
AACGCUAAAGGAUAUACAUGAGGAUCACCCAUGUUGAGGAAGGUUAGAUGAGGAGUAAGUAGAAGGUUAGACGA [JR_Exclu3_Sub090] (puzzle: Exclusion 3)					23.7	
AACUACUCUGUGAGGAUAUGCGAUCGUUGAUCAAAGCAGAAGGCACAUGAGGAUCACCCAUGUUCCUACGAGGG [Edatbiat] (puzzle: Brourd's mod of Exclusion 4)					30.2	
AACUCACAUGAGGAUCACCCAUGUGAGGAUAUGGAUUCGCUGGCCGUAGCCAGUGGAUCCAGAAGGCGCAUGAU [JL-ex1-4.10] (Eterna round: R97, puzzle: Exclusion 1)	23.1		21.2			
AACUUCUGAGGAUAUACAUAGAUUUACAUGAGGAUCACCCAUGUUCCUCUUUGUAUAAAUGUAGAAGGCAGAAGAA [Mat - Exclusion 5 - JL Mod - D72] (Eterna round: R97, puzzle: Exclusion 5)	349		203			
AAGAAAAGGAGAGGAUAUGCGAAAGGAAGUGUAGCAGAAGGCUUCGGGUAAGUCCACAUGAGGAUCACCCAUGUUAAUAAAAGA [PowerStrip EXNG 1.19] (Eterna round: R96, puzzle: Exclusion NG 1)	345	290	436			
AAGAAACAUGAGGAUCACCCAUGUGAGGAUAUGAGUAAGAAAAGAAAAGAAAGAAGAGUCAGAAGGCACAAAGG [salish99-ex1_r3_060] (puzzle: Exclusion 1)				49.5	35.4	41.5
AAGAAACAUGAGGAUCACCCAUGUGAGGAUAUGAUGAGUAUUAUGUAUGUAGUAUGAAUCAGAAGGCACAAAGG [Mat - Mod Mix D40] (puzzle: Exclusion 1)				224	95	158
AAGAAACAUGAGGAUCACCCAUGUGAGGAUAUGGAAAAGAAAAGAAAAGAAAGAAGAAUCAGAAGGCACAAAGG [salish99-ex1_r3_020] (puzzle: Exclusion 1)				40.8	33.7	37.6
AAGAAACAUGAGGAUCACCCAUGUGAGGAUAUGUAAAGAAAAGAAAAAGAAAAGAAAAACAGAAGGCACAAAGA [JR_Exclusion1_Sub001] (puzzle: Exclusion 1)				38.7	43.6	34
AAGAAACGAGGAUAUACAAUUAAGAGAGAGAAGGAAAUGAGACAUGAGGAUCACCCAUGUAGAAGGCGUAAGAA [JR_Exclu2_Sub082] (puzzle: Exclusion 2)				27.6	31.1	26.5
AAGAAGAAGUAAGGAUAUGAAGAUUUGGUGAUAACAUGAGGAUCACCCAUGUGAAAACAAUAAGAUCAGAAGGUAUAAGAAGAA [AK ExNG2-2.1] (Eterna round: R96, puzzle: Exclusion NG 2)	53.9	42.1	72.1			
AAGAAGAUCAAAGGAUAUGGAGCUGAAACGGCGCUAGAAGGUUGUCUAGUGUAACAUGAGGAUCACCCAUGUAGGGACCUCUAA [AK ExNG1-V2-2] (Eterna round: R96, puzzle: Exclusion NG 1)	562	385	644			
AAGAGGAUUAUAGGAUAUGAAGCUAAAACGGCGUUAGAAGGGUAUACAGAGUUACAUGAGGAUCACCCAUGUUGUGAUUUCUAA [AK ExNG1-V2-4.3] (Eterna round: R96, puzzle: Exclusion NG 1)	52.6	36.9	62.5			
AAGAGUGAGCGAGGAUAUUGAUUUUGGCGUAGUCAAGAAGGCGCGUACAUGAGGAUCACCCAUGUGCUCAGAGCGCAAAAGGGU [Gequon] (Eterna round: R96, puzzle: Exclusion NG 1)	208	49.8	68.2			
AAGAUGCGGGUAGGAUAUGGGAAUUAAUAAAGACCAGAAGGACUGGUCACACAACAUGAGGAUCACCCAUGUGUGUGUAGUGAA [exng1 ex1] (Eterna round: R96, puzzle: Exclusion NG 1)		9.2				
AAGCAGCGAGGAUAUGCUUGCGCGUGUCCUAGUUGAAAUAAACUUGAGGAUCACCCAAGUAGAAGGCGCAACCC [EX2 #42] (Eterna round: R97, puzzle: Exclusion 2)	197		41.9			
AAGCAUUGCCAAAGGUAGUGCAAAACAUGAGGAUCACCCAUGUAGGAUAUGGUAGGCAAAGCUUACCAGAAGGACAUGAUAAAU [Mat - Exclusion NG 3 - Mod of JL - D19] (Eterna round: R96, puzzle: Exclusion NG 3)	218	28	42			
AAGGAUAGAGGAUAUACAUAGAUACAGAUUCAUGUAAUCCUACAUGAGGAUCACCCAUGUAGAAGGCUAUCCUA [Fiskers Ex 2 - 15] (puzzle: Exclusion 2)					14.5	
AAGGAUAGAGGAUAUACGUAGAUACAGAUUCAUGUAGAACUACAUGAGGAUCACCCAUGUAGAAGGCUAUCCUA [Fiskers Ex 2 - 6] (Eterna round: R96, puzzle: Exclusion 2)	354	24.8	29			
AAGGAUAGAGGAUAUACGUAGAUACAGAUUCAUGUAGAACUACAUGAGGAUCACCCAUGUAGAAGGCUAUCCUA [Fiskers Ex 2 - 6] (puzzle: Exclusion 2)					26.5	
AAGGAUAGAGGAUAUGCAUAGAUACAGAUUCAUGUAGAACUACAUGAGGAUCACCCAUGUAGAAGGCUAUCCUA [Fiskers Ex 2 - 5] (puzzle: Exclusion 2)					17.3	
AAGGAUCGAGGAUAUACAUAGAUACAGAUUCAUGUAGAACUACAUGAGGAUCACCCAUGUAGAAGGCGAUCCUA [Mat - Same state - Mayanna Mod - D120] (Eterna round: R96, puzzle: Exclusion 2)	367	31.1	41.3			
AAGGGUACUUUCAGAACGACAUGAGGAUCACCCAUGUAGACUGAGGAUAUCUGCUACUAAGGACGGGAGAAGGCAGUGUAAUGU [Ex NG3 #74] (Eterna round: R96, puzzle: Exclusion NG 3)	10.6	11.1	14.2			
AAGGGUGCUUUCAGAACGACAUGAGGAUCACCCAUGUAGACUGAGGAUAUCUACUCCUAAGGACGGGAGAAGGCAGUGUAAUGC [Ex NG3 #65] (Eterna round: R96, puzzle: Exclusion NG 3)	19.5	14.2	21.7			
